Measured values from the Immune Epitope Database (IEDB).
Each block holds one sequence with its values, some of them ahead of it.

Experiments:
Experiment in all cases: IEDB peptide-MHC binding, purified MHC/competitive/radioactivity; filed as Kd, often an IC50 or EC50 that approximates it; ≥ and ≤ were set here for values at or beyond the usual limits of such assays
HLA-A*33:01 = biological target: HLA-A*33:01
HLA-A*31:01 = biological target: HLA-A*31:01
HLA-A*11:01 = biological target: HLA-A*11:01
HLA-A*03:01 = biological target: HLA-A*03:01
HLA-A*68:01 = biological target: HLA-A*68:01
[1] = source organism: Vaccinia virus WR
[2] = source organism: Mammarenavirus mopeiaense
[3] = source organism: Dengue virus 4 Philippines/H241/1956
[4] = source organism: SARS coronavirus Tor2
[5] = source organism: Dengue virus 2 Jamaica/1409/1983
[6] = source organism: Dengue virus 4 Dominica/814669/1981
[7] = source organism: Dengue virus 3 Martinique/1243/1999
[8] = source organism: Dengue virus 1 Brazil/97-11/1997
[9] = source organism: Dengue virus 4 Thailand/0348/1991

Sequence: KAIEKDRLDK
Kd (HLA-A*33:01; [1]): ≥ 70 µM
Kd (HLA-A*31:01; [1]): ≥ 21.8 µM
Kd (HLA-A*11:01; [1]): 1.2 µM
Kd (HLA-A*03:01; [1]): 12.6 µM
Kd (HLA-A*68:01; [1]): 4.73 µM

Sequence: KASMLEKYK
Kd (HLA-A*33:01; [1]): ≥ 39.2 µM
Kd (HLA-A*31:01; [1]): 0.181 µM
Kd (HLA-A*11:01; [1]): 0.11 µM
Kd (HLA-A*03:01; [1]): 4.04 µM
Kd (HLA-A*68:01; [1]): 2.85 µM

Sequence: KCFGNTAIAK
Kd (HLA-A*33:01; [2]): 3.38 µM
Kd (HLA-A*31:01; [2]): 0.528 µM
Kd (HLA-A*11:01; [2]): 7.37 µM
Kd (HLA-A*03:01; [2]): 0.195 µM
Kd (HLA-A*68:01; [2]): 7.87 µM

Sequence: KSKQDRSDGY
Kd (HLA-A*33:01; [1]): ≥ 70 µM
Kd (HLA-A*31:01; [1]): ≥ 70 µM
Kd (HLA-A*11:01; [1]): ≥ 69.8 µM
Kd (HLA-A*03:01; [1]): ≥ 35.3 µM
Kd (HLA-A*68:01; [1]): ≥ 70.2 µM

Sequence: KSMFWDGMDY
Kd (HLA-A*33:01; [1]): ≥ 66.2 µM
Kd (HLA-A*31:01; [1]): 0.0772 µM
Kd (HLA-A*11:01; [1]): 0.00175 µM
Kd (HLA-A*03:01; [1]): 0.00579 µM
Kd (HLA-A*68:01; [1]): 0.511 µM

Sequence: KSRRLNLFSK
Kd (HLA-A*33:01; [1]): ≥ 70 µM
Kd (HLA-A*31:01; [1]): 0.647 µM
Kd (HLA-A*11:01; [1]): 1.09 µM
Kd (HLA-A*03:01; [1]): 0.64 µM
Kd (HLA-A*68:01; [1]): ≥ 70.2 µM

Sequence: KVASAGISYK
Kd (HLA-A*11:01; [3]): 0.0227 µM
Kd (HLA-A*03:01; [3]): 0.00314 µM

Sequence: KVKTELVMDK
Kd (HLA-A*33:01; [1]): ≥ 70 µM
Kd (HLA-A*31:01; [1]): 0.12 µM
Kd (HLA-A*11:01; [1]): 0.409 µM
Kd (HLA-A*03:01; [1]): 1.33 µM
Kd (HLA-A*68:01; [1]): ≥ 48.6 µM

Sequence: KVVDTFISY
Kd (HLA-A*33:01; [1]): 12.3 µM
Kd (HLA-A*31:01; [1]): 1.17 µM
Kd (HLA-A*11:01; [1]): 0.00498 µM
Kd (HLA-A*03:01; [1]): 0.0079 µM
Kd (HLA-A*68:01; [1]): 3.38 µM

Sequence: LALTDVEKR
Kd (HLA-A*33:01; [1]): ≥ 73.3 µM
Kd (HLA-A*31:01; [1]): 0.209 µM
Kd (HLA-A*11:01; [1]): 12.3 µM
Kd (HLA-A*03:01; [1]): ≥ 78 µM
Kd (HLA-A*68:01; [1]): 0.162 µM

Sequence: LAMDEFIQR
Kd (HLA-A*33:01; [4]): 1.45 µM
Kd (HLA-A*31:01; [4]): 0.362 µM
Kd (HLA-A*11:01; [4]): 2.39 µM
Kd (HLA-A*03:01; [4]): ≥ 78 µM
Kd (HLA-A*68:01; [4]): 0.612 µM

Sequence: LTTLSRTSKK
Kd (HLA-A*11:01; [5]): 1.86 µM

Sequence: MIKMFSQIDR
Kd (HLA-A*33:01; [1]): 0.0453 µM
Kd (HLA-A*31:01; [1]): 0.00243 µM
Kd (HLA-A*11:01; [1]): 3.79 µM
Kd (HLA-A*03:01; [1]): 2.25 µM
Kd (HLA-A*68:01; [1]): 0.0016 µM

Sequence: MMKLGISPSK
Kd (HLA-A*33:01; [1]): 10.6 µM
Kd (HLA-A*31:01; [1]): 0.382 µM
Kd (HLA-A*11:01; [1]): 0.0271 µM
Kd (HLA-A*03:01; [1]): 0.0115 µM
Kd (HLA-A*68:01; [1]): 0.0811 µM

Sequence: MQNCLLRLK
Kd (HLA-A*33:01; [4]): 12.1 µM
Kd (HLA-A*31:01; [4]): 0.0131 µM
Kd (HLA-A*11:01; [4]): 0.0177 µM
Kd (HLA-A*03:01; [4]): 0.0983 µM
Kd (HLA-A*68:01; [4]): 1.37 µM

Sequence: MTLMKGASRR
Kd (HLA-A*33:01; [6]): 0.0685 µM
Kd (HLA-A*31:01; [6]): 0.0819 µM
Kd (HLA-A*68:01; [6]): 0.0397 µM

Sequence: NAISSRVDR
Kd (HLA-A*33:01; [1]): 0.096 µM
Kd (HLA-A*31:01; [1]): 1.28 µM
Kd (HLA-A*11:01; [1]): ≥ 37.1 µM
Kd (HLA-A*03:01; [1]): ≥ 78 µM
Kd (HLA-A*68:01; [1]): 0.0149 µM

Sequence: NFLKEQHCQK
Kd (HLA-A*33:01; [4]): 1.22 µM
Kd (HLA-A*31:01; [4]): 1.47 µM
Kd (HLA-A*11:01; [4]): 13.3 µM
Kd (HLA-A*03:01; [4]): 7.28 µM
Kd (HLA-A*68:01; [4]): ≥ 36.4 µM

Sequence: NLLDSYFVVK
Kd (HLA-A*33:01; [4]): 4.59 µM
Kd (HLA-A*31:01; [4]): 7.22 µM
Kd (HLA-A*11:01; [4]): 1.87 µM
Kd (HLA-A*03:01; [4]): 5.37 µM
Kd (HLA-A*68:01; [4]): 2.35 µM

Sequence: NLTDTNFKK
Kd (HLA-A*33:01; [1]): 4.43 µM
Kd (HLA-A*31:01; [1]): 9.07 µM
Kd (HLA-A*11:01; [1]): 0.658 µM
Kd (HLA-A*03:01; [1]): 1.22 µM
Kd (HLA-A*68:01; [1]): 0.027 µM

Sequence: NMLKRERNR
Kd (HLA-A*33:01; [5]): 0.079 µM

Sequence: NVHEHINDQK
Kd (HLA-A*33:01; [1]): ≥ 29.2 µM
Kd (HLA-A*31:01; [1]): ≥ 70 µM
Kd (HLA-A*11:01; [1]): 18.4 µM
Kd (HLA-A*03:01; [1]): 4.05 µM
Kd (HLA-A*68:01; [1]): 0.00438 µM

Sequence: PLIDIIRKR
Kd (HLA-A*33:01; [1]): 1.02 µM
Kd (HLA-A*31:01; [1]): 6.25 µM
Kd (HLA-A*11:01; [1]): ≥ 48.1 µM
Kd (HLA-A*03:01; [1]): ≥ 45.7 µM
Kd (HLA-A*68:01; [1]): 0.974 µM

Sequence: PTFAAGLLLR
Kd (HLA-A*68:01; [5]): 0.837 µM

Sequence: PVNQFTGYLK
Kd (HLA-A*33:01; [4]): ≥ 61.9 µM
Kd (HLA-A*31:01; [4]): ≥ 70 µM
Kd (HLA-A*11:01; [4]): 0.764 µM
Kd (HLA-A*03:01; [4]): 5.33 µM
Kd (HLA-A*68:01; [4]): 2.26 µM

Sequence: QFIKPVSDLY
Kd (HLA-A*33:01; [1]): ≥ 42.6 µM
Kd (HLA-A*31:01; [1]): ≥ 46.5 µM
Kd (HLA-A*11:01; [1]): ≥ 38.3 µM
Kd (HLA-A*03:01; [1]): ≥ 70.1 µM
Kd (HLA-A*68:01; [1]): 1.27 µM

Sequence: QFNFNGHTY
Kd (HLA-A*33:01; [1]): ≥ 64.6 µM
Kd (HLA-A*31:01; [1]): 0.565 µM
Kd (HLA-A*11:01; [1]): 14.2 µM
Kd (HLA-A*03:01; [1]): 5.3 µM
Kd (HLA-A*68:01; [1]): 0.175 µM

Sequence: QTVKPGNFNK
Kd (HLA-A*33:01; [4]): 10.5 µM
Kd (HLA-A*31:01; [4]): 1.51 µM
Kd (HLA-A*11:01; [4]): 0.249 µM
Kd (HLA-A*03:01; [4]): 2.73 µM
Kd (HLA-A*68:01; [4]): 0.418 µM

Sequence: RALKAYFTAK
Kd (HLA-A*33:01; [1]): 16 µM
Kd (HLA-A*31:01; [1]): 0.0388 µM
Kd (HLA-A*11:01; [1]): 0.0265 µM
Kd (HLA-A*03:01; [1]): 0.0124 µM
Kd (HLA-A*68:01; [1]): 1.95 µM

Sequence: RFQPFQQFGR
Kd (HLA-A*33:01; [4]): 1.3 µM
Kd (HLA-A*31:01; [4]): 0.00106 µM
Kd (HLA-A*11:01; [4]): ≥ 35.1 µM
Kd (HLA-A*03:01; [4]): 13.5 µM
Kd (HLA-A*68:01; [4]): 0.54 µM

Kd (HLA-A*03:01; source organism: Homo sapiens): 0.11 µM
Sequence: RINGIPQQH

Sequence: RLGLVLDDYK
Kd (HLA-A*33:01; [1]): ≥ 70 µM
Kd (HLA-A*31:01; [1]): 2.22 µM
Kd (HLA-A*11:01; [1]): 0.0378 µM
Kd (HLA-A*03:01; [1]): 0.0489 µM
Kd (HLA-A*68:01; [1]): 0.506 µM

Sequence: RLPTFMTQK
Kd (HLA-A*03:01; [5]): 0.00236 µM

Sequence: RMLNILNRR
Kd (HLA-A*31:01; [5]): 0.00242 µM

Sequence: SALTLHWFR
Kd (HLA-A*33:01; [3]): 0.0037 µM
Kd (HLA-A*31:01; [3]): 0.000247 µM
Kd (HLA-A*68:01; [3]): 0.00237 µM

Sequence: SIMKSVGTGK
Kd (HLA-A*11:01; [7]): 0.0205 µM
Kd (HLA-A*03:01; [7]): 0.0083 µM

Sequence: TFAAGLLLR
Kd (HLA-A*33:01; [5]): 0.0681 µM

Sequence: TIEEGRTLR
Kd (HLA-A*33:01; [8]): 0.382 µM

Sequence: TMRCIGISNR
Kd (HLA-A*33:01; [5]): 0.0141 µM
Kd (HLA-A*31:01; [5]): 0.00366 µM

Sequence: TTNIWLKLR
Kd (HLA-A*33:01; [5]): 0.00725 µM
Kd (HLA-A*31:01; [5]): 0.00264 µM

Sequence: TVASAAQRR
Kd (HLA-A*68:01; [8]): 0.0338 µM

Sequence: TVMAFHLSTR
Kd (HLA-A*33:01; [9]): 0.0213 µM
Kd (HLA-A*31:01; [9]): 0.00592 µM
Kd (HLA-A*11:01; [9]): 0.0694 µM
Kd (HLA-A*68:01; [9]): 0.00443 µM

Sequence: VLARWGTFKK
Kd (HLA-A*03:01; [7]): 0.0183 µM

Sequence: VTAASAAQRR
Kd (HLA-A*68:01; [7]): 0.0424 µM

Sequence: WSYYMATLK
Kd (HLA-A*11:01; [3]): 0.0161 µM
Kd (HLA-A*03:01; [3]): 0.00333 µM
Kd (HLA-A*68:01; [3]): 0.00183 µM

Sequence: YQNKVVKVLR
Kd (HLA-A*33:01; [3]): 0.446 µM

Sequence: YVCKHTYVDR
Kd (HLA-A*31:01; [7]): 0.133 µM
Kd (HLA-A*68:01; [7]): 0.89 µM

Sequence: YVSAIAQAK
Kd (HLA-A*68:01; [8]): 0.0362 µM
